Measurements published in article PMC2735845.

Tests used:
[1] = target: E. coli SSB-mixed (E. coli) (UniProt P0AGE0)
E. coli SSB113 (E. coli) = E. coli SSB113 (E. coli) (UniProt P0AGE0)
[2] = target: E. coli SSBΔC1 (SSB lacking its C-terminal-most residue) (E. coli) (UniProt P0AGE0)

Fold stimulation of RecQ helicase activity by SSB-mixed [1]: 0.7 fold
Fold stimulation of RecQ helicase activity by SSB113 (E. coli SSB113 (E. coli)): 0.9 fold
Fold stimulation of RecQ helicase activity by SSBΔC1 [2]: 0.6 fold
Substance: E. coli RecQ (wild type, full-length, hexahistidine-tagged) (from UniProt P15043 1-609) (enzyme)
